In general, Kd refers to the free concentration of one partner at which half of the binding sites on the other are occupied at equilibrium, for simple one-to-one binding. Low values mean tighter binding, high ones weaker binding. By koff is commonly meant the first-order rate constant of dissociation. Usually kon stands for the second-order rate constant of association. A high value points to faster complex formation.

The assay deals with T1, Pyruvate kinase PKM1, purified from rabbit skeletal muscle (rabbit, UniProt P11974-1 1-531).
T1 construct: Pyruvate kinase PKM, isoform M1, rabbit skeletal muscle; called full-length PKM1; amine-coupled to a CM5 chip or used as analyte in SPR; also called full-length PKM1; PK1; source: isolated from skeletal muscles of adult rabbits, electrophoretically homogeneous
T1 sequence (P11974 whole entry, canonical isoform): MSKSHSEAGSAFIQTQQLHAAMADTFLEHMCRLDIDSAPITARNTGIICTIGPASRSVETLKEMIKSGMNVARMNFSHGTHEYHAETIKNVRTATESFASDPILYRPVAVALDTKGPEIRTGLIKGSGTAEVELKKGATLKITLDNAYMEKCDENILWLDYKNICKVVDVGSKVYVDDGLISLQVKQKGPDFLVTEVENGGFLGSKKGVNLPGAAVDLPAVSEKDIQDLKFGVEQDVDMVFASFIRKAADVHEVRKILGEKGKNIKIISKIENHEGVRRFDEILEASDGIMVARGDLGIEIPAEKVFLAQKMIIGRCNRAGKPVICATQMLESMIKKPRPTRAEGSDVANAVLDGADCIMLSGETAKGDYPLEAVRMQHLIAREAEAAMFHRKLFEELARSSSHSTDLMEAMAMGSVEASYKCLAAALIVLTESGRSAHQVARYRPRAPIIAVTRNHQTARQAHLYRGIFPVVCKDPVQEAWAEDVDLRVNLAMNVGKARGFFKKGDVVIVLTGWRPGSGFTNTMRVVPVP
Put plainly: SPR; Biacore T200, 25 °C; GAPDH, LDH or aldolase A amine-coupled to a CM5 chip, PKM1 as analyte in 0.05 M potassium phosphate buffer pH 7.4, 10 µL/min for 5 min; global fit to the 1:1 binding model. The settings on record: both partners purified.

B1: Glyceraldehyde 3-phosphate dehydrogenase, purified from rabbit skeletal muscle (enzyme)
chain: not shown
notes: Glyceraldehyde-3-phosphate dehydrogenase, rabbit skeletal muscle; also called GAPDH; GAPD; source: isolated from skeletal muscles of adult rabbits, electrophoretically homogeneous
As for B1, binding was characterised by a dissociation constant (Kd) of 1.06 µM, the koff is 0.00162 s⁻¹ and the association rate constant (kon) was 1530 M⁻¹ s⁻¹.

Source of the values: article PMC10143413, “Proteomic Profiling of Mouse Brain Pyruvate Kinase Binding Proteins: A Hint for Moonlighting Functions of PKM1?” (International Journal of Molecular Sciences, 2023).
